T1: human Type 1 mutCALR (52 bp deletion) (human)
T1 construct: also called human mutCALR Type 1; mutant CALR
T1 chain: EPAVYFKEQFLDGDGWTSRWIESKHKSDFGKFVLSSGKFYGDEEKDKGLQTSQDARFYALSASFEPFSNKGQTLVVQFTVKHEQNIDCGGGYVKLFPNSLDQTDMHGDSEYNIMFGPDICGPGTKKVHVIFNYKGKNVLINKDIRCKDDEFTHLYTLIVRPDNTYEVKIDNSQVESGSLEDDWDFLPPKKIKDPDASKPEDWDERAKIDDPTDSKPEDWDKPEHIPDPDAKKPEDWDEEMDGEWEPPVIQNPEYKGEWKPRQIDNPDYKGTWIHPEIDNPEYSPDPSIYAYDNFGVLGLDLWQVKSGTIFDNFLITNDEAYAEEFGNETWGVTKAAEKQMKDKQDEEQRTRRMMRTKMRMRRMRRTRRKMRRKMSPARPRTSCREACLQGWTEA

B1: AB2: anti-mutCALR antibody including VH and VL regions of antibody B3 from WO2020175689 fused to human constant regions (antibody, human IgG1, kappa, V domains shown)
VH: QVQLQQSGAELVKPGSSVKISCKASGYTFTRNFIHWIKQQPGNGLEWIGWIFPGDGDTEYNQKFNGKATLTADKSSSTAYMQLSSLTSEDSAVYFCARGNYNYEYFDYWGQGVMVTVSS
VL: DIQMTQSPASLSASLGETVSIECLASEDIYSYLAWYQQKPGKSPQLLIFAANRLQDGVPSRFSGSGSGTQFSLKISGMQPEDEGDYFCLQGSKFPYTFGPGTKLELNR
B2: AB3: anti-mutCALR antibody including the BJ095 VH region and the BJ097 VL region from WO2019178362 fused to human constant regions (antibody, human IgG1, kappa, V domains shown)
VH: QVQLVQSGAEVKKPGASVKVSCKASGYSFTGYYIHWVRQAPGQGLEWIGYISAYNGASSYNQKFKGRATFTVDTSISTAYMELSRLRSDDTAVYYCASSMDYWGQGTLVTVSS
VL: DVVMTQSPLSLPVTLGQPASISCKSSQSLLDSDGKTYLNWLQQRPGQSPKRLIYLVSKLDSGVPDRFSGSGSGTDFTLKISRVEAEDVGVYHCWQGTHFPYTFGQGTKLIEKR
B3: anti-mutCALR antibody clone 32 (antibody, human IgG1, lambda, V domains shown)
VH: QVQLVQSGAEVKKPGATVKISCKVSGYSFTDYFIHWVQQAPGKGLAWVGLVDPEDGETIYAEKFQGRVTITADTSTDTAYMELSSLRSEDTAVYYCATPGGILTDPDAFDIWGQGTMVTVSS
VL: QSALTQPASVSGSPGQSITISCTGTSSDVGGYNYVSWYQQHPGKAPKLMIYEVSNRPSGVSNRFSGSKSGNTASLTISGLQAEDEADYYCSSYTSSSTPYVFGTGTKVTVLG
notes: also called anti-mutCALR antibody 32

What was measured:
[1] = biological target: T1, human Type 1 mutCALR (52 bp deletion); experiment: flow cytometry on BaF3 cells stably expressing human MPL and human mutCALR Type 1, goat anti-human R-PE secondary, GMFI
Method: Approximately 200,000 cells/well were added to 96-well plates and stained with the indicated concentration of antibodies for 30 minutes on ice. Cells were then washed and stained with goat anti-human secondary conjugated to R-phycoerythrin (R-PE) (Jackson Immuno Research Laboratories) for 30 minutes on ice. The cells were then washed again and analyzed by flow cytometry.

MBP protein = MBP protein (UniProt P0AEX9 27-392 = MBP); experiment: SPR (Biacore 8K), antibody captured on anti-human IgG (Fc), MBP injected
[2] = biological target: T2, recombinant Flag tag_GFP_tev_hmutCALR Type 1 (human); experiment: HTRF competition: preformed complex of 5 nM Flag-GFP-mutCALR Type 1 and 80 nM His-MPL, anti-FLAG-Europium / anti-6xHis-APC, 90 min reading; blocked ligand: His-MPL
T2 construct: also called FLAG-GFP-tev-mutCALR
Method: HTRF detection solution (2 nM anti-FLAG-Europium, and 100 nM anti-6×His-SureLight® APC) was then added and the plate was read on BMG PHERAstar FSX using kinetic HTRF protocol, obtaining readings every 15 minutes for 120 minutes total. […] Percent-of-control values were obtained by dividing the background-subtracted HTRF Ratios for each test well by the buffer control well in the same plate row.

Binder | binding result [1] | binding result (MBP protein) | binding result [2]
B1 | binds |  | 
B2 | binds |  | 
B3 |  | no binding (tested: 250 nM) | binds

Source: US20230272055A1 (Incyte, published 2023)
